Earlier results as cited in article PMC3955120 (Journal of chromatography. B, Analytical technologies in …, 2013).
Where no end group is shown, it is not given here.

Details: humans, i.v. infusion of kisspeptin-54, RIA, monoexponential decline

Substance: kisspeptin-54 (GTSLSPPPESSGSPQQPGLSAPHSRQIPAPQGAVLVQREKDLPNYNWNSFGLRF-NH2; ends and bridges not checked; UniProt Q15726 68-121, looked up)
- half-life of post steady-state plasma kisspeptin-IR: 27.6 min
